Assay results as given in US20250109187A1 (NOVAVAX, published 2025).

What was measured:
[1] = molecular target: T1, Prototype (Wuhan-Hu-1) rS (SARS-CoV-2 (parent virus, Wuhan-Hu-1), UniProt P0DTC2 14-1273); experiment: ELISA: rS coated, mAb titrated, anti-mouse HRP
T1 construct: also called Prototype rS; Prototype spike

[2] = molecular target: T1, Prototype (Wuhan-Hu-1) rS

B1: NVX.62.12 (antibody, V domains shown)
VH: QVQLQQSGAELVRPGVSVKISCKGSGYTFTDYAMHWVKQSHAKSLEWIGVISTYSGDAYYNQKFKGKATVTVDKSSSTAYMELARLTSEDSAIYFCARNWDDYYAMDYWGQGTSVTVSS
VL: QIILSQSPAILSASPGERVTMTCRATSSVSYMHWYRQKPGSSPQPWIYATSNLASGVPARFSGSGSGTSYSLTISRVEAEDAATYYCQQWSGNPWTFGGGTKLEIK
notes: also called mAb NVX.62.12
In the case of B1, the EC50 [1] is reported as over 5 mg/L and the IC50 [2] is reported as over 3 mg/L.

B2: NVX.324.6 (antibody, V domains shown)
VH: EVQLQQSGPELGKPGTSMKISCKASGYSFTGYTMNWVKQSHGKNLEWIGLINPYNGGTSYNQKFKDKATLTVDKSSSTAYMELLSLTSEDSAVYYCVREHYYYDSGYGGYYAMDYWGQGTSVTVSS
VL: QIVLSQSPAILSASPGDKVTMTCRASASVNYMYWYQQKPGSSPKPWIYATSNLASGVPARFSGSGSGTSYSLTISRVEAEDAAIYYCQQWSSNPYTFGGGTKLEIK
notes: also called mAb NVX.324.6
For B2, the EC50 [1] was over 5 mg/L and the IC50 [2] was over 3 mg/L.
